The test concerns the target T1, human CTLA-4 (human, UniProt P16410 36-161, limits assumed).
T1 construct: Soluble protein, construct not described; also called huCTLA-4; CD152
Put plainly: blocking ELISA: CD80 coated, antibody pre-incubated with human CTLA-4, binding of CTLA-4 to CD80 detected. (In general: ELISA stands for enzyme-linked immunosorbent assay.)

T1 sequence (P16410 36-161 limits assumed): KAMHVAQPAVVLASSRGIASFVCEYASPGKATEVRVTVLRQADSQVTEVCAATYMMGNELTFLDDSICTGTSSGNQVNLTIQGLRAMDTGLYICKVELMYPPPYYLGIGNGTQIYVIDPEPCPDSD

B1: L3D10 (commercial mouse anti-human CTLA-4 IgG1) (antibody, V domains shown)
VH: QVQLKESGPGLVAPSQSLSITCTVSGFSLTSYGLSWVRQPPGKGLEWLGVIWYDGNTNFHSALISRLTISKDNSKSQVFLELNSLQTDDTATYYCAKTEGHYYGSNYGYYALDYWGQGTSVTVSS
VL: DIQMTQSPASLSVSVGETVTITCRASENIYSNLAWYQQKQGKSPQLLVYAATNLADGVPSRFSGSGSGTQYSLKINSLQSEDFGTYFCQHLWGTPYTFGGGTKLEIK
For the molecule B1, the “IC50 (read off the curve)” value is approximately 2 nM.

These data come from US20190153097A1 (AGENCY FOR SCIENCE TECHNOLOGY AND RESEARCH, published 2019).
